Here are results for 17 molecules from patent US20220031842A1 (JIANGSU HENGRUI MEDICINE, published 2022).

Numbering of substitutions follows the chain as printed.

Assay [1] concerns the target T1, Fusion protein of LAG-3 extracellular region and mIgG2a Fc (human).
T1 construct: Limits of the signal peptide are marked only by lost underlining; also called LAG-3-mFc; LAG-3-mFc fusion protein
T1 chain: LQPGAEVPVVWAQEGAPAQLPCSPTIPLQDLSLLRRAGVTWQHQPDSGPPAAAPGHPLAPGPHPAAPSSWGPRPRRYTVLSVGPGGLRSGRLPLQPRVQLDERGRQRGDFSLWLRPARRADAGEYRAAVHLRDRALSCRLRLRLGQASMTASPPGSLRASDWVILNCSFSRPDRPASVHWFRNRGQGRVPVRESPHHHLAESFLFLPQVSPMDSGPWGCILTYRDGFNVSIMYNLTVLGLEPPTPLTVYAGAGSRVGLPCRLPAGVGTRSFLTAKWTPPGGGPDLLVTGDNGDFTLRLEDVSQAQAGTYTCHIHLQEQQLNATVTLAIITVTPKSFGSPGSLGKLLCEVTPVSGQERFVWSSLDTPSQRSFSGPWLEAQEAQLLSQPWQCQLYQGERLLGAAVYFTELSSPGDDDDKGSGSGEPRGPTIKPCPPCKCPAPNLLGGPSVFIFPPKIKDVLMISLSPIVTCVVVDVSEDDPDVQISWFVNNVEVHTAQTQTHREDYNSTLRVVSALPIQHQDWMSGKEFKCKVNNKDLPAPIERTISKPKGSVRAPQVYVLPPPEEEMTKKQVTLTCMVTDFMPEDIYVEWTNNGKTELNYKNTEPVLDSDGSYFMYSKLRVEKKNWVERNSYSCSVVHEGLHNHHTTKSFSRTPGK
The experiment in a line: ELISA, LAG-3-mFc captured by anti-mouse Fc on plate (which fusion: inferred). The text has this: The binding ability of anti-LAG-3 antibody to human LAG-3 protein was detected by ELISA assay. LAG-3 fusion protein with Fc or mFc tag was immobilized into 96-well microtiter plate by binding to anti-Fc or anti-mFc antibody coated on the microtiter plate, the strength of the signal after the addition of the antibody was used to determine the binding activity of the antibody to LAG-3, the specific experimental method is as follows.
The goat anti-human Fc antibody (Jackson Immuno Research, Cat No. 109-005-008) or goat anti-mouse Fc antibody (Sigma, Cat No. M3534-1ML) was diluted to a concentration of 2 μg/ml with PBS buffer at pH 7.4 (Sigma, Cat No. P4417-100TAB), and added to a 96-well plate at a volume of 50 μl/well and then, the plate was incubated in the incubator at 37° C. for 2 hours. After discarding the liquid, the plates were blocked with 200 μl/well of blocking solution containing 5% skim milk (Bright Dairy, skim milk powder) in PBS, and incubated in the incubator at 37° C. for 2.5 hours or overnight at 4° C. (16-18 hours). After blocking, the blocking solution was discarded and the plate was washed 5 times with PBST buffer (PH7.4 PBS containing 0.05% tween-20). LAG-3-Fc fusion protein (SEQ ID NO:3, produced in-house) or LAG-3-mFc fusion protein (SEQ ID NO: 4, produced in-house) was diluted with sample diluent (PH7.4 PBS containing 1% BSA) to 1 μg/ml and was added to each well, 50 μl/well. Then the plate was incubated in the incubator at 37° C. for 1 h or overnight at 4° C. After incubation, the reaction solution in the plate was discarded, and the plate was washed with PBST for 6 times, and then was added with 50 μl/well of various concentrations of antibodies to be tested (hybridoma purified antibody or humanized antibody) which have been diluted with sample diluent, and the plate was incubated at 37° C. for 1 h. The plates was washed 5 times with PBST after incubation, and was added with 100 μl/well of goat anti-mouse (Jackson Immuno Research, Cat No. 115-035-003) or goat anti-human secondary antibody (Jackson Immuno Research, Cat No. 109-035-003) labeled with HRP, diluted in sample diluent, and the plate was incubated at 37° C. for 1 h.
In general terms: In an ELISA, binding on a coated surface is turned into a signal by an enzyme label.

Assay [2] addresses T2, Fusion protein of LAG-3 extracellular region and hIgG1 Fc (human).
T2 construct: Limits of the signal peptide are marked only by lost underlining; also called LAG-3-Fc; LAG-3-Fc fusion protein
Put plainly: competition: biotin-LAG-3-Fc binding to fixed Daudi cells, antibody titrated. Here is the method: Daudi cells (human leukemia cells, purchased from the cell bank in Chinese Academy of Sciences) were seeded in 96-well plate with a density of 3×10⁵/well. After centrifugation at 1000 rpm, the supernatant was discarded and then the plate was fixed with 4% PFA for 30 min at room temperature. The plate was washed 4 times with PBS after discarding the fixed solution, and the plate was blocked with 200 μl/well of blocking solution containing 5% skim milk (Bright Dairy, skim milk powder) diluted in PBS, and incubated at 37° C. for 2.5 hours. After blocking, the blocking solution was discarded and the plate was washed 5 times with PBST buffer (pH7.4 PBS containing 0.05% tween-20), added with 50 μl/well mixture of biotin-labeled (Biotin labeling kit, Dojindo Chemical, Cat No. LK03) LAG-3-Fc fusion protein (produced in-house, SEQ ID NO: 3) and gradient concentrations of the antibody to be tested, wherein the biotin-labeled LAG-3-Fc fusion protein has been diluted with sample diluent (PH7.4 PBS containing 1% BSA) at a final concentration of 0.4 μg/ml, and pre-mixed for an hour, then the plate was incubated at 37° C. for 1 h. The reaction solution was discarded and the plate was washed 5 times with PBST after incubation, 50 μl/well of HRP-labeled Streptavidin (Sigma, Cat No. 52438) diluted with sample diluent was added, and the plate was incubated at 37° C. for 1 h. After washing the plate 5 times with PBST, 50 μl/well of TMB chromogenic substrate (KPL, Cat No. 52-00-03) was added to each well, and incubated at room temperature for 5-15 min, the reaction was stopped by the addition of 50 μl 1M H₂SO₄ to each well. The OD value at a wavelength of 450 nm was read on NOVOStar microplate reader, and then the activity of the LAG-3 antibody in blocking the binding of the antigen to Daudi cells was calculated.

B1: Hu229-011 (antibody, human IgG4 S228P, kappa, V domains shown)
VH: QVQLVQSGSELKKPGASVKVSCKASGYTFTTSGMSWVRQAPGQGLKWMGWINTYSGVPTYADDFKGRFVFSLDTSVSTAYLQISSLKAEDTAVYYCARDNYDARDVYYYAMDYWGQGTTVTVSS
VL: DIQMTQSPSSLSASVGDRVTITCRASENIYSNLAWYQQKPGKSPKLLVYAATNLADGVPSRFSGSGSGTQYTLTISSLQPEDFATYYCQHFWITPWTFGGGTKVEIKR
notes: Humanized mAb229
As a reminder, the EC50 is the concentration needed to bring the measured effect to its halfway point. A high value points to a less potent agent. As usually defined, the IC50 is the concentration needed to halve the response being measured. A low value points to greater potency. Consider B1, for which it took 201 pM to reach a half-maximal effect in assay [1] (EC50). In assay [2], this molecule showed an IC50 of 566 pM.

B2: Hu229-016 (antibody, human IgG4 S228P, kappa, V domains shown)
VH: B1 VH with R38K, V93T, Y95F
VL: B1 VL with S43A, V48I, Q70D, Y71F
notes: Humanized mAb229
B2 returned a half-maximal effective concentration (EC50) in assay [1] of 154 pM. For the same molecule, in assay [2], the 50% inhibitory concentration (IC50) worked out at 875 pM.

B3: Hu229-008 (antibody, human IgG4 S228P, kappa, V domains shown)
VH: B1 VH
VL: B1 VL with S43A, V48I, Q70D, Y71F
notes: Humanized mAb229
As to B3, in assay [1], the EC50 stood at 506 pM.

B4: Hu229-012 (antibody, human IgG4 S228P, kappa, V domains shown)
VH: B1 VH with R38K, V93T
VL: B1 VL with S43A, V48I, Q70D, Y71F
notes: Humanized mAb229
B4 showed a half-maximal effective concentration (EC50) in assay [1] of 268 pM.

B5: Hu303-011 (antibody, human IgG4 S228P, kappa, V domains shown)
VH: QVQLVQSGAEVKKPGASVKVSCKASGYTFTDYYMNWVRQAPGQRLEWMGVINPYNGDTAYNQKFKGRVTITVDKSASTAYMELSSLRSEDTAVYYCTRDDGYYDYYFDVWGQGTTVTVSS
VL: DIQMTQSPSSLSASVGDRVTITCRASQDIGSRLNWYQQKPGKAPKRLIYATSTLDSGVPKRFSGSRSGTDFTLTISSLQPEDFATYYCLQLASSPPTFGGGTKVEIKR
notes: Humanized mAb303
In assay [1], B5 gave a concentration for a half-maximal effect (EC50) of 314 pM. The molecule further came in with a concentration for half-maximal inhibition (IC50) in assay [2] of 728 pM.

B6: Hu303-013 (antibody, human IgG4 S228P, kappa, V domains shown)
VH: B5 VH
VL: B5 VL with I21L, Y36L, K42G, P44F, T85D
notes: Humanized mAb303
In assay [1], B6 returned an EC50 of 166 pM. In assay [2], this molecule returned an IC50 of 347 pM.

B7: Hu303-021 (antibody, human IgG4 S228P, kappa, V domains shown)
VH: B5 VH with F29L, M48I, V68A, I70L
VL: B5 VL
notes: Humanized mAb303
On to B7, for which a half-maximal response in assay [1] (EC50) required 170 pM. This molecule had an IC50 in assay [2] of 456 pM.

B8: Hu303-022 (antibody, human IgG4 S228P, kappa, V domains shown)
VH: B5 VH with F29L, M48I, V68A, I70L
VL: B5 VL with Y36L, P44F
notes: Humanized mAb303
Molecule B8 returned an EC50 in assay [1] of 145 pM. For the same molecule, in assay [2], the IC50 is 360 pM.

B9: Hu303-018 (antibody, human IgG4 S228P, kappa, V domains shown)
VH: B5 VH with F29L
VL: B5 VL with I21L, Y36L, K42G, P44F, T85D
notes: Humanized mAb303
B9 came in with an EC50 in assay [1] of 244 pM. The IC50 in assay [2] amounted to 608 pM.

B10: Hu303-015 (antibody, human IgG4 S228P, kappa, V domains shown)
VH: B5 VH with F29L
VL: B5 VL with K60S
notes: Humanized mAb303
Consider B10, for which, in assay [1], a half-maximal effect (EC50) was put at 172 pM. In assay [2], this molecule displayed an IC50 of 398 pM.

B11: Hu303-020 (antibody, human IgG4 S228P, kappa, V domains shown)
VH: B5 VH with F29L, M48I, V68A, I70L
VL: B5 VL with K60S
notes: Humanized mAb303
Turning to B11, the response in assay [1] was half-maximal at 140 pM (EC50). The molecule also displayed a half-maximal inhibitory concentration (IC50) in assay [2] of 345 pM.

B12: Hu303-012 (antibody, human IgG4 S228P, kappa, V domains shown)
VH: B5 VH
VL: B5 VL with Y36L, P44F
notes: Humanized mAb303
Consider B12, for which the midpoint of the response in assay [1], the EC50, lay at 164 pM. For the same molecule, the IC50 in assay [2] was 361 pM.

B13: Hu303-007 (antibody, human IgG4 S228P, kappa, V domains shown)
VH: B5 VH with V72R, K74T, T97A
VL: B5 VL with Y36L, P44F
notes: Humanized mAb303
In assay [1], B13 registered an EC50 of 135 pM. Moreover, the IC50 in assay [2] is 343 pM.

B14: Hu303-019 (antibody, human IgG4 S228P, kappa, V domains shown)
VH: B5 VH with F29L, M48I, V68A, I70L
VL: B5 VL with R46L, K60S, R66G
notes: Humanized mAb303
Regarding B14, the concentration for a half-maximal effect (EC50) in assay [1] was determined as 277 pM. In assay [2], this molecule showed a half-inhibitory concentration (IC50) of 471 pM.

B15: Hu303-023 (antibody, human IgG4 S228P, kappa, V domains shown)
VH: B5 VH with F29L, M48I, V68A, I70L
VL: B5 VL with I21L, Y36L, K42G, P44F, T85D
notes: Humanized mAb303
B15 returned a concentration for a half-maximal effect (EC50) in assay [1] of 152 pM. In addition, the 50% inhibitory concentration (IC50) in assay [2] is 369 pM.

B16: Hu303-017 (antibody, human IgG4 S228P, kappa, V domains shown)
VH: B5 VH with F29L
VL: B5 VL with Y36L, P44F
notes: Humanized mAb303
Turning to B16, in assay [1], a half-maximal response (EC50) required 168 pM. Moreover, the IC50 in assay [2] came to 398 pM.

B17: Hu303-008 (antibody, human IgG4 S228P, kappa, V domains shown)
VH: B5 VH with V72R, K74T, T97A
VL: B5 VL with I21L, Y36L, K42G, P44F, T85D
notes: Humanized mAb303
For the molecule B17, the 50% effective concentration (EC50) in assay [1] was 140 pM. In assay [2], the IC50 was found to be 346 pM.
